{"source": "patent US20100158968A1", "about": "(published 2010)", "key": {"[1]": {"target": "T1, mitogen-activated protein kinase-activated protein kinase 2 (human MK2) (human, UniProt P49137 46-400)", "T1 sequence (P49137 46-400)": "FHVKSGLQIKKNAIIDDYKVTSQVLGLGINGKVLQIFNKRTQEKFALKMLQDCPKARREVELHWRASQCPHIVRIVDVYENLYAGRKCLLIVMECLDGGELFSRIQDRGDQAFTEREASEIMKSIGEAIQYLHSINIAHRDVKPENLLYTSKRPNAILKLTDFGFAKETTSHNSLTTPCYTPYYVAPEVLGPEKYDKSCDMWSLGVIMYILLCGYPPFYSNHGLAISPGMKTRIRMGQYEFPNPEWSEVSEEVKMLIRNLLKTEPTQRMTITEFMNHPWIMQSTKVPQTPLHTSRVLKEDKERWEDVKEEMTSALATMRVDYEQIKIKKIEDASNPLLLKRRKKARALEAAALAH", "test": "kinase inhibition, radiometric assay"}, "[2]": {"target": "T1, mitogen-activated protein …", "test": "kinase inhibition, radiometric assay", "remark": "listed apart in the source"}}, "note": "Like-named read-outs stand apart in the source and are kept apart here.", "data": [{"binder": "KKKALNRQLGVAA", "values": [{"measurement": "IC50", "setting": "[1]", "value": 31.2, "unit": "µM"}]}, {"binder": "KAFAKLAARLYRKALARQLGVAA", "values": [{"measurement": "IC50", "setting": "[2]", "value": 4.43, "unit": "µM"}]}, {"binder": "YARAAARQARA", "values": [{"measurement": "IC50", "setting": "[1]", "value": "> 1000", "unit": "µM"}]}]}
